Each block holds one substance with its values, some of them ahead of it. Ends that are not written are not given here.
How the values were obtained:
α-SMA in human FLSs = experiment: Expression of α-SMA in FLSs by western blot; format: cell-based; settings: TGF-β1 10 ng/mL, 7 days, OA FLSs (n = 5), western blot normalized to Hsp90
Description: Finally, for analysis of the expression of α-SMA, FLSs (n = 5) were stimulated with VTN(381–397 a.a.) (10, 25, 50, 100 ng/mL) with or without TGF-β1 (10 ng/mL) for 7 days.
The expression of αV and β6 subunits and α-SMA in FLSs was evaluated by western blot analysis. Cells were scraped from plates and lysed with lysis buffer (25 mM HEPES, 150 mM NaCl, 0.5% Triton, 10% glycerol, 1 mM dithiothreitol) containing phosphatase inhibitors (25 mM β-glycerophosphate, 1 mM Na3VO4, and 1 mM NaF) and complete protease inhibitor mixture (Roche Applied Science; Penzberg, Germany). Total proteins were separated by 10% SDS–PAGE gels (12% for α-SMA) and transferred onto PVDF membranes. The membranes were then incubated with anti-αV polyclonal antibody (1:250 dilution) (Cell Signaling Technology; Boston, MA, USA), anti-β6 polyclonal antibody (1:1000 dilution) (Abcam; Cambridge, UK) or anti-α-SMA monoclonal antibody (Agilent; Santa Clara, CA, USA; 1:1000 dilution). […] Data were analyzed by paired Wilcoxon test; a p-value < 0.05 was considered statistically significant. […]
FLSs were stimulated with VTN(381–397 a.a.) with or without TGF-β1 to evaluate the effect on the expression of the fibrotic marker α-SMA (Fig. 5). […] The results in Fig. 5 are expressed as the ratio of the normalized optical density vs. the control and are shown as the mean (±SEM).

[1] = test system: β6 integrin subunit expression, human fibroblast-like synoviocytes (FLSs); experiment: β6 subunit expression in FLSs by western blot after stimulation; format: cell-based; settings: TGF-β1 10 ng/mL, 3 or 7 days, n = 12, OA FLSs, western blot normalized to GAPDH, paired Wilcoxon, p-value ≤ 0.01
Description: Synovial membranes were obtained from 22 OA patients (14 females, 8 males; mean age 69.8 ± 9.6 years, BMI 30.9 ± 6.8) during knee replacement, and primary synovial fibroblasts were isolated as explained previously. The research ethics committee of CHU de Liege (Belgium) approved the study, and the patient gave informed consent to allow research procedures on samples. Human fibroblast-like synoviocytes (FLSs) were then cultured in DMEM supplemented with 10% FBS, 1% Pen/Strep, and 1% L-glutamine (all from Lonza; Basel, Switzerland) at 37 °C in an atmosphere of 5% CO2. In a plate, 5 × 10^4 FLSs were stimulated with different compounds to analyze the modulation of αVβ6: (i) TGF-β1, TNF-α, IL-1β, or IL-6 were used for 3 or 7 days at a concentration of 10 ng/mL; (ii) among the danger-associated molecular patterns, high-mobility group box 1 (HMGB1) was tested at 10, 50, and 100 ng/mL for 3 days, while S100A9 and S100A12 were tested at 100 and 200 ng/mL for 3 days or 24 h; (iii) advanced glycation end product (AGE-BSA) was tested at 50, 100, and 200 μg/mL for 3 days or 24 h; (iv) prednisolone and dexamethasone were used at 1 μM for 3 or 7 days; and (v) menadione or H2O2 was used to induce oxidative stress at 25–50–100 μM (3 h) and 100–200–400 μM (2 h), respectively, without FBS in the medium.
The expression of αV and β6 subunits and α-SMA in FLSs was evaluated by western blot analysis. Cells were scraped from plates and lysed with lysis buffer (25 mM HEPES, 150 mM NaCl, 0.5% Triton, 10% glycerol, 1 mM dithiothreitol) containing phosphatase inhibitors (25 mM β-glycerophosphate, 1 mM Na3VO4, and 1 mM NaF) and complete protease inhibitor mixture (Roche Applied Science; Penzberg, Germany). Total proteins were separated by 10% SDS–PAGE gels (12% for α-SMA) and transferred onto PVDF membranes. The membranes were then incubated with anti-αV polyclonal antibody (1:250 dilution) (Cell Signaling Technology; Boston, MA, USA), anti-β6 polyclonal antibody (1:1000 dilution) (Abcam; Cambridge, UK) or anti-α-SMA monoclonal antibody (Agilent; Santa Clara, CA, USA; 1:1000 dilution). HRP-conjugated anti-rabbit antibody (1:1000 dilution) (Cell Signaling Technology) was used as the secondary antibody. Immunoblots were developed using the ECL chemiluminescent detection system. Rabbit anti-glyceraldehyde 3-phosphate dehydrogenase (GAPDH) (Merck) or rabbit anti-heat shock protein 90 (Hsp90; Santa Cruz) was used as loading controls at a dilution of 1:10,000 or 1:200, respectively. Values of optical intensity were normalized to GAPDH or Hsp90 levels. Data were analyzed by paired Wilcoxon test; a p-value < 0.05 was considered statistically significant. Statistical analysis was performed with GraphPad Prism 6 software (San Diego, CA, USA).
IL-1β 10 ng/mL 3 days IL-6 10 ng/mL 3 daysIL-6 Prednisolone 1µM 3 daysPrednisolone
0.0 control IL-6 0.0 control PRE
Dexamethasone 1µM 3 daysDexamethasone TNF-α 10 ng/mL 3 days AGE 50 µg/mL 24 h

integrin αVβ1 [2] = target: T1, integrin αVβ1 (Homo sapiens, UniProt P05556+P06756); experiment: Saturation assay with radiolabeled echistatin, αVβ1; format: binding; settings: increasing radiolabeled echistatin, integrin coated at 1.8 µg/mL
T1 construct: purchased R&D System; Minneapolis, MN, USA
Description: (§1) To determine if VTN(381–397 a.a.) could interact with integrins, we investigated its ability to compete with radiolabeled echistatin for binding to five different integrin complexes: α5β1, αVβ1, αVβ3, αVβ5 and αVβ6. We also tested the binding affinity of the whole VTN protein and another VTN fragment, VTN(365–381 a.a), as previously described by Maile et al.,[33]. First, the binding affinity of echistatin to the five integrins was measured by determining the equilibrium dissociation constant (KD). KD was evaluated by saturation assays involving addition of increasing concentrations of radiolabeled echistatin to a constant concentration of integrins (coated at 1.8 µg/mL). […] Subsequently, competitive experiments were performed using increasing concentrations of ligand and a fixed amount of radiolabeled echistatin. The fixed concentration of radiolabeled echistatin was determined according to its KD value. For each ligand concentration, the relative binding of ^125ISIB-echistatin to coated integrins was then measured, and values were plotted versus the logarithm of ligand concentration.

integrin αVβ3 [3] = target: T2, integrin αVβ3 (Homo sapiens, UniProt P05106+P06756); experiment: Saturation assay with radiolabeled echistatin, αVβ3; format: binding; settings: increasing radiolabeled echistatin, integrin coated at 1.8 µg/mL
T2 construct: purchased R&D System; Minneapolis, MN, USA
Description: as §1

integrin αVβ3 [4] = target: T2, integrin αVβ3; experiment: Competition study, 125ISIB-echistatin vs ligands on coated αVβ3; format: binding; settings: competition with 8 nM 125ISIB-echistatin, recombinant human αVβ3 coated at 1.8 µg/mL, IBB pH 7.4 / 0.5% BSA, 2 h room temperature, duplicate wells
Description: (§2) A competition study was performed to investigate the interaction of VTN(381–397 a.a.) with five different integrins. Radiolabeled echistatin, a disintegrin known to bind integrin receptors, was used as a tracer for the binding assays. Lyophilized echistatin was provided by Bachem (Bubendorf, Switzerland) and radiolabeled by conjugation with a radioiodinated benzoate (^125ISIB) to the epsilon amino group of lysine side chains. For the five integrins, α5β1, αVβ1, αVβ3, αVβ5, and αVβ6 (R&D System; Minneapolis, MN, USA), a solution at 1.8 µg/mL was prepared with integrin-binding buffer (IBB; 20 mM Tris pH 7.4, 150 mM NaCl, 2 mM CaCl2, 1 mM MgCl2, 1 mM MnCl2). Nunc Maxisorp Module plates were coated overnight at 4 °C with integrin complex at 1.8 µg/mL. […] After rinsing, bound radioactivity was quantified using a gamma counter. The percentage of relative binding of radiolabeled echistatin was calculated as follows: radioactivity in the test well*100/radioactivity in the reference well. […] For comparison of the potency of ligands in inhibiting bound ^125ISIB-echistatin for different integrin complexes, the half-maximal inhibitory concentration (IC50) was calculated. The IC50 value was determined by constructing a dose–response curve and examining the effect of different concentrations of ligands on ^125ISIB-echistatin binding. […]

integrin αVβ5 [5] = target: T3, integrin αVβ5 (Homo sapiens, UniProt P06756+P18084); experiment: Saturation assay with radiolabeled echistatin, αVβ5; format: binding; settings: increasing radiolabeled echistatin, integrin coated at 1.8 µg/mL
T3 construct: purchased R&D System; Minneapolis, MN, USA
Description: as §1

integrin α5β1 [6] = target: T4, integrin α5β1 (Homo sapiens, UniProt P05556+P08648); experiment: Saturation assay with radiolabeled echistatin, α5β1; format: binding; settings: increasing radiolabeled echistatin, integrin coated at 1.8 µg/mL
T4 construct: purchased R&D System; Minneapolis, MN, USA
Description: as §1

integrin α5β1 [7] = target: T4, integrin α5β1; experiment: Competition study, 125ISIB-echistatin vs ligands on coated α5β1; format: binding; settings: competition with 4 nM 125ISIB-echistatin, recombinant human α5β1 coated at 1.8 µg/mL, IBB pH 7.4 / 0.5% BSA, 2 h room temperature, duplicate wells
Description: as §2

integrin αVβ6 [8] = target: T5, integrin αVβ6 (Homo sapiens, UniProt P06756+P18564); experiment: Competition study, 125ISIB-echistatin vs ligands on coated αVβ6; format: binding; settings: competition with 20 nM 125ISIB-echistatin, recombinant human αVβ6 coated at 1.8 µg/mL, IBB pH 7.4 / 0.5% BSA, 2 h room temperature, duplicate wells, gamma counter, five-parameter logistic
T5 construct: purchased R&D System; Minneapolis, MN, USA
Description: as §2, with “µg/mL. After the wells were washed with sample buffer (IBB, 0.5% BSA), blocking solution (IBB, 2% BSA) was added, and the microplate was incubated for 2 h at room temperature. The wells were then washed three times with IBB/0.5% BSA. Then, ^125ISIB-echistatin was diluted in sample buffer to fixed concentrations of 4, 4, 8, 8, and 20 nM for α5β1, αVβ1, αVβ3, αVβ5, and αVβ6 competition studies, respectively. The ^125ISIB-echistatin was mixed with sample buffer at a ratio of 1:1 (total binding = control well) or with increasing concentrations of ligands (Supplementary information SI1) [complete VTN, VTN(381–397 a.a.), VTN(365–381 a.a.)] at a ratio 1:1 and added to wells in duplicate. We used 1,4,7-triazacyclononane-1,4,7-triacetic acid (NOTA) as a negative control.” for “µg/mL.”
To determine if VTN(381–397 a.a.) could interact with integrins, we investigated its ability to compete with radiolabeled echistatin for binding to five different integrin complexes: α5β1, αVβ1, αVβ3, αVβ5 and αVβ6. […] First, the binding affinity of echistatin to the five integrins was measured by determining the equilibrium dissociation constant (KD). […] The fixed concentration of radiolabeled echistatin was determined according to its KD value. For each ligand concentration, the relative binding of ^125ISIB-echistatin to coated integrins was then measured, and values were plotted versus the logarithm of ligand concentration.

integrin αVβ5 [9] = target: T3, integrin αVβ5; experiment: Competition study, 125ISIB-echistatin vs ligands on coated αVβ5; format: binding; settings: competition with 8 nM 125ISIB-echistatin, recombinant human αVβ5 coated at 1.8 µg/mL, IBB pH 7.4 / 0.5% BSA, 2 h room temperature, duplicate wells
Description: as §2

integrin αVβ1 [10] = target: T1, integrin αVβ1; experiment: Competition study, 125ISIB-echistatin vs ligands on coated αVβ1; format: binding; settings: competition with 4 nM 125ISIB-echistatin, recombinant human αVβ1 coated at 1.8 µg/mL, IBB pH 7.4 / 0.5% BSA, 2 h room temperature, duplicate wells
Description: as §2

integrin αVβ6 [11] = target: T5, integrin αVβ6; experiment: Saturation assay with radiolabeled echistatin, αVβ6; format: binding; settings: increasing radiolabeled echistatin, integrin coated at 1.8 µg/mL
Description: as §1

[12] = test system: latent TGF-β1 activation (αVβ6 on human FLSs; PAI-1 promoter-luciferase in TMLCs); experiment: TGF-β luciferase bioassay, TMLC + FLS coculture, activation of latent TGF-β1; format: cell-based, human FLSs; mink lung epithelial reporter cells; settings: peptide 50 ng/mL, 200 ng/mL latent TGF-β1, TMLC + FLS coculture, 16 h, n = 6 donors in triplicate, paired Wilcoxon
Description: Transformed mink lung epithelial cells (TMLCs), a generous gift from Prof. DB Rifkin (Department of Cell Biology, NYU School of Medicine, New York, NY), were used to test TGF-β1 functionality. TMLCs were cultured in DMEM supplemented with 10% FBS, 1% Pen/Strep, and 1 mg/mL G418 Sulfate (Biowest; Riverside, MO, USA). For coculture, TMLCs were plated in 96-well plates at a density of 10^4 cells per well, and fibroblasts were added at a density of 1.5 × 10^4 cells per well, with a final volume of 100 μL. Cells were allowed to attach at 37 °C and 5% CO2. After 6 h, the medium was removed and replaced by the different treatments diluted in medium with 0.1% BSA without FBS (final volume of 100 μL).
For function-blocking experiments, cells were incubated with anti-αVβ6 antibody (clone 10D5; Merck) or with the isotype control IgG2a kappa (clone eBM2a; Thermo Fisher Scientific) for 20 min at room temperature at a concentration of 50 μg/mL in medium containing 1 mM MgCl2/0.1% BSA before adding other compounds. […] Luciferase activity was assessed by plate-reading luminometers with an injector (Victor™ X3; PerkinElmer Waltham, MA, USA) adding 100 µl of luciferase assay reagent (Promega) per well. […]
The data are expressed as relative luciferase activity (RLA). RLA is the measured luciferase activity of the coculture divided by the activity of the related control alone under the same conditions. […]

T2 sequence (P06756 31-992 limits assumed): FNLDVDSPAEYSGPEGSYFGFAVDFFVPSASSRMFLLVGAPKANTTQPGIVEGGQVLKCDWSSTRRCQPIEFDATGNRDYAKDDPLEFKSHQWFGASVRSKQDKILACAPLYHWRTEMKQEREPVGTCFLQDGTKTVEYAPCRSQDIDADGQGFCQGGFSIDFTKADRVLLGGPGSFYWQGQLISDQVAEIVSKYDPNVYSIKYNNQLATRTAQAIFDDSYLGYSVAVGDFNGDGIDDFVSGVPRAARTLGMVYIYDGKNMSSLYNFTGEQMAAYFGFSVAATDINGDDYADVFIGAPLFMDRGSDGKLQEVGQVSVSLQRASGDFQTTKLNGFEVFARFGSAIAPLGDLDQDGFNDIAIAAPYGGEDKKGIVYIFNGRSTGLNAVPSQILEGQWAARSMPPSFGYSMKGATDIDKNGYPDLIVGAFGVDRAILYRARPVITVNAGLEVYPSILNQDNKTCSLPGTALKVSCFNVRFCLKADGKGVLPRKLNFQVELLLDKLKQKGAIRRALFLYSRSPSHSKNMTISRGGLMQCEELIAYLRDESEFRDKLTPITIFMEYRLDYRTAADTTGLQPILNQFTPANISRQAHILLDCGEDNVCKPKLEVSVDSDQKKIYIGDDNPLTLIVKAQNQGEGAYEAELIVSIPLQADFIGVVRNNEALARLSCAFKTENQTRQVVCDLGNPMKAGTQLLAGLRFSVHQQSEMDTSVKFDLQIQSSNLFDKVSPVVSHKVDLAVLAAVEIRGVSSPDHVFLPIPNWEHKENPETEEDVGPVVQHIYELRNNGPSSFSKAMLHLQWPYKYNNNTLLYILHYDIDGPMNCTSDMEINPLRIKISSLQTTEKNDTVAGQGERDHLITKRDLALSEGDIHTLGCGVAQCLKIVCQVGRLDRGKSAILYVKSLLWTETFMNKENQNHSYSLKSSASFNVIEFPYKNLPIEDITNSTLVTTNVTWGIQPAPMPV
T2 sequence (P05106 27-718 limits assumed): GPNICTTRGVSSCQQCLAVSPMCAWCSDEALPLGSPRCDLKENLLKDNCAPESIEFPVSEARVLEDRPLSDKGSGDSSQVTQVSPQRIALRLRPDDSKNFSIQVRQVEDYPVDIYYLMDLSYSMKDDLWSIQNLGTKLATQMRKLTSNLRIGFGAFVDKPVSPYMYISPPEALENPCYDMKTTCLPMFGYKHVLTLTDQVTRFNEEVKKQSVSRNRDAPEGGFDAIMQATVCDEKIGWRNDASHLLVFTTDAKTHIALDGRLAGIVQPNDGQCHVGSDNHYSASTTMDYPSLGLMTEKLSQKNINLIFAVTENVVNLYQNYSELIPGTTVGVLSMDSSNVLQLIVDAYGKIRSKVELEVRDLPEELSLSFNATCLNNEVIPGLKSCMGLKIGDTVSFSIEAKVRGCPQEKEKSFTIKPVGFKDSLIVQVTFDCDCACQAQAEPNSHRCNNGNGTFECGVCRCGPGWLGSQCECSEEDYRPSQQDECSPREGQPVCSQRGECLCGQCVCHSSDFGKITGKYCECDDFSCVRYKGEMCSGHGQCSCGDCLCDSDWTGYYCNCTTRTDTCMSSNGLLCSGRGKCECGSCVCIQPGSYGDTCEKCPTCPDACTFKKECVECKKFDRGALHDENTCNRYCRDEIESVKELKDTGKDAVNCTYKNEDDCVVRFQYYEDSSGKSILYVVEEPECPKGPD
T3 sequence (P06756 31-992 limits assumed): as the sequence (P06756 31-992 limits assumed) above
T3 sequence (P18084 24-719 limits assumed): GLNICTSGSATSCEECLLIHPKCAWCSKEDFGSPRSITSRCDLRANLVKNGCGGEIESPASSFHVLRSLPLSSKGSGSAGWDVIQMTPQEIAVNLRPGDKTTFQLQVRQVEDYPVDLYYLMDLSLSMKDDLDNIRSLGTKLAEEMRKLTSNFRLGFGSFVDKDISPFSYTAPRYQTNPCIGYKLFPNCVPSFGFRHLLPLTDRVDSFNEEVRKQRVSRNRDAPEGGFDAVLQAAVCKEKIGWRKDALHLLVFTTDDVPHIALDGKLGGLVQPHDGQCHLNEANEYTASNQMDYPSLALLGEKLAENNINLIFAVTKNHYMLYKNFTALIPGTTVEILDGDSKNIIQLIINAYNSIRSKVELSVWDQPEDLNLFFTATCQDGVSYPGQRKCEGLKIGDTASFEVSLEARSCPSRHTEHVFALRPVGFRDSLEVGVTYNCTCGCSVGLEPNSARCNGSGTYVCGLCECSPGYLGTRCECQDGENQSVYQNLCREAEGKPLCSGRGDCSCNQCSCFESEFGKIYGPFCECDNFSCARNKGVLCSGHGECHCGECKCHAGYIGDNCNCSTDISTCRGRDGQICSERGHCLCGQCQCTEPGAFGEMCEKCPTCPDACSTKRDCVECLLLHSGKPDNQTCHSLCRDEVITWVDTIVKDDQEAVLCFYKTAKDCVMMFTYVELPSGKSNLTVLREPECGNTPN
T1 sequence (P06756 31-992 limits assumed): as the sequence (P06756 31-992 limits assumed) above
T1 sequence (P05556 21-728 limits assumed): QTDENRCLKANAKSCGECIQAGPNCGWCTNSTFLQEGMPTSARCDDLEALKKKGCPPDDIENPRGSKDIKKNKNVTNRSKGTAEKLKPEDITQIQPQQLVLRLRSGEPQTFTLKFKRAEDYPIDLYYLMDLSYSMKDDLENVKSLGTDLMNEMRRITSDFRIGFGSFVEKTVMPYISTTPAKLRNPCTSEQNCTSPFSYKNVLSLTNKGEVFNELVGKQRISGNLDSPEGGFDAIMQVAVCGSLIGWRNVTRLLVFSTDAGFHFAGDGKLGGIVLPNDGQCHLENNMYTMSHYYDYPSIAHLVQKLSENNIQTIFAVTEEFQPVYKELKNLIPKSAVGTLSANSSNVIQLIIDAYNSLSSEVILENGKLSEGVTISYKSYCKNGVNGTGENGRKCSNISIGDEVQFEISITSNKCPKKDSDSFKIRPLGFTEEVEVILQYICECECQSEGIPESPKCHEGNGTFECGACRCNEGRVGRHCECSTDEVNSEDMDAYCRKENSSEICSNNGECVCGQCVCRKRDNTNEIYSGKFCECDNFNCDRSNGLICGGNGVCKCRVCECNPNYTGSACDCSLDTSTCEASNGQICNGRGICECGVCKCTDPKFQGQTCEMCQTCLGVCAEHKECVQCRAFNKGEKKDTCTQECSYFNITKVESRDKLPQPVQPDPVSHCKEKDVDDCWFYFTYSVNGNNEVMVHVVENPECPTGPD
T5 sequence (P06756 31-992 limits assumed): as the sequence (P06756 31-992 limits assumed) above
T5 sequence (P18564 22-707 limits assumed): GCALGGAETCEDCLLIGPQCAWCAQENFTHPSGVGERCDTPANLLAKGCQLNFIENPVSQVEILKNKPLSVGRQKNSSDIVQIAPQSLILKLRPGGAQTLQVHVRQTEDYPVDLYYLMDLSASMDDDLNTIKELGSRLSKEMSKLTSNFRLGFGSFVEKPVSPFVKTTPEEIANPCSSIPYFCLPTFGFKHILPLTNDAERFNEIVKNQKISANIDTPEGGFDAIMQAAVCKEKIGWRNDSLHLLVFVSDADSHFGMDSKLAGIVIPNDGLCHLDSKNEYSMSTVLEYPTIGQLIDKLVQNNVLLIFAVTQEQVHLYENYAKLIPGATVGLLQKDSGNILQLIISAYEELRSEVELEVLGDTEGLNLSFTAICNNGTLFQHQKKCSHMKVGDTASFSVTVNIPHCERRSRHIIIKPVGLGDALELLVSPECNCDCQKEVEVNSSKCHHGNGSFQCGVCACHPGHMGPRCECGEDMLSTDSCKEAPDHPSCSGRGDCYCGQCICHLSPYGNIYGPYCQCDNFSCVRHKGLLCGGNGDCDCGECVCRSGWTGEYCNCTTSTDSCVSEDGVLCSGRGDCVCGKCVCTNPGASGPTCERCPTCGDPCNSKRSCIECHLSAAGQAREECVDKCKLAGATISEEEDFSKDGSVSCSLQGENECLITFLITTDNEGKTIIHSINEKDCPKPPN
T4 sequence (P08648 42-995 limits assumed): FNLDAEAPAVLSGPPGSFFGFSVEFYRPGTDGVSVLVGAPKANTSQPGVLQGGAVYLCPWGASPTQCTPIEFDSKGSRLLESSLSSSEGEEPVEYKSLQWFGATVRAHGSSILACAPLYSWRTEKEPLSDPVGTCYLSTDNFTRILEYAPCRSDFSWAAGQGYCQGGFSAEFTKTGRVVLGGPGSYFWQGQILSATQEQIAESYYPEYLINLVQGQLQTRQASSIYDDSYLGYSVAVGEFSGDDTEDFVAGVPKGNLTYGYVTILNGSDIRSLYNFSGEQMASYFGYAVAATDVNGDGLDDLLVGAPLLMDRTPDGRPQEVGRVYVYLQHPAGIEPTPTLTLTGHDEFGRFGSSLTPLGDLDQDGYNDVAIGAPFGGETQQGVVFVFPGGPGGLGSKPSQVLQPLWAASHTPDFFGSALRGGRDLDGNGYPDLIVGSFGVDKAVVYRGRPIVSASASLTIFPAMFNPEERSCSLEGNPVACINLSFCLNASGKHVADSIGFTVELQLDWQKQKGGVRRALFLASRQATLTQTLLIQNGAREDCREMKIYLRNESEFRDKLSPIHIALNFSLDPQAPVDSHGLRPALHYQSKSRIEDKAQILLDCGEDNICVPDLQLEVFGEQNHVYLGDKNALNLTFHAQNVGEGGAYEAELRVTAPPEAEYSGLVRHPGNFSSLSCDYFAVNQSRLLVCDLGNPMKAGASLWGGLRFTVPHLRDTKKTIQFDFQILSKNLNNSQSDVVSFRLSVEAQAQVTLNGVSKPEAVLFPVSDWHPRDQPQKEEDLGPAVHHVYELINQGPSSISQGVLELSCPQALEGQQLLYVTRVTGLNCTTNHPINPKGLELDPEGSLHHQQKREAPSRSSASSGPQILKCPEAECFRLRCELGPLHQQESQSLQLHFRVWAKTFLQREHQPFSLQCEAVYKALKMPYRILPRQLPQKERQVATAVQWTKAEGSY
T4 sequence (P05556 21-728 limits assumed): as the sequence (P05556 21-728 limits assumed) above

Substance: TGF-β1: profibrotic mediator
effect on α-SMA (α-SMA in human FLSs): upregulated the content of the fibrotic marker α-SMA | effect on β6 subunit expression [1]: significantly increased β6 expression

Substance: Echistatin (QCESGPCCRNCKFLKEGTICKRARGDDMDDYCNGKTCDCPRNPHKGPAT; disulfide (positions not given here); not fully specified (bridges); also: Lys ε-amino groups conjugated with 125I-iodobenzoate (125ISIB), positions not given here) [tracer radiolabeled with radioiodinated benzoate (125ISIB) at lysine side chains]
Kd (integrin αVβ1 [2]): 0.99 nM | Kd (integrin αVβ3 [3]): 3.17 nM | IC50 (integrin αVβ3 [4]): 3.7 nM | Kd (integrin αVβ5 [5]): 3.46 nM | Kd (integrin α5β1 [6]): 1.48 nM | IC50 (integrin α5β1 [7]): 2 nM | IC50 (integrin αVβ6 [8]): 14 nM | IC50 (integrin αVβ5 [9]): 4 nM | IC50 (integrin αVβ1 [10]): 1.5 nM | Kd (integrin αVβ6 [11]): 17.1 nM

effect on latent TGF-β1 activation (luciferase signal) [12]: No significant variation was observed
Substance: hepcidin: used as a control peptide

From article PMC8080589, “Modulation of αVβ6 integrin in osteoarthritis-related synovitis and the interaction with VTN(381–397 a.a.) competing for TGF-β1 activation” (Experimental & Molecular Medicine, 2021)
